Reference: article PMC11865060, “Novel human single-domain antibodies exert potent anti-tumor activity by targeting EGF-like repeat epitope of EpCAM” (Frontiers in Pharmacology, 2025)

Key:
[1] = molecular target: T1, EpCAM on DU145, PC3 and MCF-7 cancer cells (Homo sapiens (DU145, PC3, MCF-7), UniProt P16422); experiment: flow cytometry on cells; cells (1 × 10^6/mL) incubated with the sdAbs at 4°C for 1 h; detection with FITC-conjugated protein A; 293T and 3T3 cells as negative controls; conditions: one partner purified
T1 construct: Epithelial cell adhesion molecule (EpCAM), endogenous on the three EpCAM+ human cancer cell lines DU145, PC3 and MCF-7; also called Epithelial cell adhesion molecule; source: endogenous, on DU145, PC3 and MCF-7 cells
T1 sequence (P16422 24-314): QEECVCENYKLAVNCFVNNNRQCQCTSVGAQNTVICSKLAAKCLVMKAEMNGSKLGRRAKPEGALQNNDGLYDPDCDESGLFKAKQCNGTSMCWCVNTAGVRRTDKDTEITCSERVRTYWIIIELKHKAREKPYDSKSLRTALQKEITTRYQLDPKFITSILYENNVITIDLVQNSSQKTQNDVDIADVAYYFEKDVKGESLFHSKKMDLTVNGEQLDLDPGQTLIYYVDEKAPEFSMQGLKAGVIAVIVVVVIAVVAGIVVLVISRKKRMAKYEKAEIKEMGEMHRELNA

[2] = molecular target: T2, EpCAM complete extracellular domain protein (Homo sapiens (assumed), UniProt P16422); experiment: ELISA; 0.2 μg of antigen coated per well at 4°C overnight; purified sdAb at 1 μg/mL, RT 1 h; detection with HRP-conjugated protein A, absorbance at 450 nm; conditions: both partners purified
T2 construct: Epithelial cell adhesion molecule (EpCAM), complete extracellular domain, bought; Commercial protein; no catalogue number, limits or tags printed; source: bought: Shanghai Bootech BioSci. and Technol
T2 sequence (P16422 24-265): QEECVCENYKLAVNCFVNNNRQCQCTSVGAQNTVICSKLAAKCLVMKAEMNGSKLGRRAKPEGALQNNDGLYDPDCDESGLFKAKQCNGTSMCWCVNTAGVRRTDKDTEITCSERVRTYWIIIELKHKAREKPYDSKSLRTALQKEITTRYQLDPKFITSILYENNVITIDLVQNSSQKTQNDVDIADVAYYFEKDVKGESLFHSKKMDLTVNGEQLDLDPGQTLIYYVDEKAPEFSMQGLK

| Binder | binding result [1] | binding result [2] |
| --- | --- | --- |
| aEP5A5 (VHH, fully human VH single-domain antibody from a phage library (Source BioScience); Human VH-only sdAb (not camelid), not Fc-fused; cloned into pET-22b by Not I and Nco I sites; also called anti-EpCAM sdAb aEP5A5; source: E. coli BL21 (DE3), purified (Ni-NTA)) VHH: QVQLLESGGGLVQPGGSLRLSCAASGVRFSNEVMAWVRQAPGKGLEWVSGIEMKNGSTYYADSVKGRFTISRDNSKNTLYLQMNSLRAEDTAVYYCASWGHSRRQQSKFNSWGQGTLVTVSS | binds |  |
| aEP4D11 (VHH, fully human VH single-domain antibody from a phage library (Source BioScience); Human VH-only sdAb (not camelid), not Fc-fused; cloned into pET-22b by Not I and Nco I sites; also called anti-EpCAM sdAb aEP4D11; source: E. coli BL21 (DE3), purified (Ni-NTA)) VHH: QVQLLESGGGLVQPGGSLRLSCAASGVKIIPKSMAWVRQAPGKGLEWVSTIETADGSTYYADSVKGRFTISRDNSKNTLYLQMNSLRAEDTAVYYCASVSRSRTNSLKSWGQGTLVTVSS | binds | binds |
| aEP3D4 (VHH, fully human VH single-domain antibody from a phage library (Source BioScience); Human VH-only sdAb (not camelid), not Fc-fused; cloned into pET-22b by Not I and Nco I sites; also called anti-EpCAM sdAb aEP3D4; source: E. coli BL21 (DE3), purified (Ni-NTA)) VHH: QVQLLESGGGLVQPGGSLRLSCAASGVKFSNHDMTWVRQAPGKGLEWVSAINSGGGSTYYADSVKGRFTISRDNSKNTLYLQMNSLRAEDTAVYYCARMGRQARVPHHMRFWGQGTLVTVSS | binds | binds |
| aEP3B2 (VHH, fully human VH single-domain antibody from a phage library (Source BioScience); Human VH-only sdAb (not camelid), not Fc-fused; cloned into pET-22b by Not I and Nco I sites; also called anti-EpCAM sdAb aEP3B2; source: E. coli BL21 (DE3), purified (Ni-NTA)) VHH: QVQLLESGGGLVQPGGSLRLSCAASGDRVSYKFMAWVRQAPGKGLEWVSSIRGNDGSTYYADSVKGRFTISRDNSKNTLYLQMNSLRAEDTAVYYCARKGKRHYELPYWGQGTLVTVSS | binds | binds |
| aEP4G2 (VHH, fully human VH single-domain antibody from a phage library (Source BioScience); Human VH-only sdAb (not camelid), not Fc-fused; cloned into pET-22b by Not I and Nco I sites; also called anti-EpCAM sdAb aEP4G2; source: E. coli BL21 (DE3), purified (Ni-NTA)) VHH: QVQLLESGGGLVQPGGSLRLSCAASGFTFSYNNMAWVRQAPGKGLEWVSAIEGKDGSTYYADSVKGRFTISRDNSKNTLYLQMNSLRAEDTAVYYCARRKGRTEKLSYWGQGTLVTVSS | binds | binds |
